# Results reported in US20080081043A1 (published 2008).
# T1: human CD48 (full-length hCD48), on cells (human, UniProt P09326 27-220)
# T1 construct: also called membrane-associated CD48
# T1 sequence: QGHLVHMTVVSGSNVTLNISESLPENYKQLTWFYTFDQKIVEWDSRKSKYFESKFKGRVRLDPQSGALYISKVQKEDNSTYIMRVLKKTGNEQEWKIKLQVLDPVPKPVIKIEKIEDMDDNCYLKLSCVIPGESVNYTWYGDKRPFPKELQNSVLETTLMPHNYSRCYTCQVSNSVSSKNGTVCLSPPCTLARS
# Molecular target: T1, human CD48 (full-length hCD48), on cells
# Test: not told at this place (summary sentence in the description)
# Experimental: Equilibrium binding assays were performed on transiently expressed hCD48. Full-length hCD48 in the expression vector pDC409 was transfected into CV-1/EBNA cells and these cells were diluted 1:20 into a carrier cell (Daudi). Serial dilutions of NAIL-Fc in binding media (RPMI 1640), 2.5% bovine serum albumin, […] HEPES, 0.02% Na azide [pH 7.2]) were incubated with cells (combination of carrier cells and transiently expressed cells 2.5×10⁶ combined cells/well) for 2 hours at 4° C. in a total of […] in a 96-well microtiter plate. The plate was centrifuged and the supernatants were aspirated. One-hundred fifty microliters of ¹²⁵I goat anti-human IgG Fcγ (Jackson Immunoresearch Laboratories, Inc., West Grove, Pa.; cat #109-006-098) was added to each well and cells were incubated another 1 hour at 4° C. Free and bound probes were separated by the pthalate oil separation method, essentially as described (Dower et al., J.Immunol. 132:751-758, 1984). Goat anti-human IgG Fcγ was labeled with […] using solid phase chloramine T analog (Iodogen; Pierce Chemical, Rockford, Ill.) to a specific radioactivity of 2.11×10¹⁵ cpm/mmol. […] No binding of C1.7-Fc or CD48-Fc proteins could be detected on nontransfected cells.
binder,measurement,value
"NAIL-Fc polypeptide (soluble NAIL-Fc fusion protein) (Fc fusion, also called C1.7-Fc; soluble NAIL polypeptide) CQGSADHVVSISGVPLQLQPNSIQTKVDSIAWKKLLPSQNGFHHILKWENGSLPSNTSNDRFSFIVKNLSLLIKAAQQQDSGLYCLEVTSISGKVQTATFQVFVFDKVEKPRLQGQGKILDRGRCQVALSCLVSRDGNVSYAWYRGSKLIQTAGNLTYLDEEVDINGTHTYTCNVSNPVSWESHTLNLTQDCQNAHQEFRRSCDKTHTCPPCPAPEAEGAPSVFLFPPKPKDTLMISRTPEVTCVVVDVSHEDPEVKFNWYVDGVEVHNAKTKPREEQYNSTYRVVSVLTVLHQDWLNGKEYKCKVSNKALPAPIEKTISKAKGQPREPQVYTLPPSREEMTKNQVSLTCLVKGFYPSDIAVEWESNGQPENNYKTTPPVLDSDGSFFLYSKLTVDKSRWQQGNVFSCSVMHEALHNHYTQKSLSLSPGK",Kd,~0.1 nM
